For the assay, the target named is HLA-DR on human peripheral blood mononuclear cells (human). Briefly: cell-based or functional assay.

Data on 1 molecule can be found in patent US20130078263A1.

B1: IMMU-114 (antibody, from a related filing, IgG4, V domains shown)
VH: QVQLQQSGSELKKPGASVKVSCKASGFTFTNYGMNWVKQAPGQGLKWMGWINTYTREPTYADDFKGRFAFSLDTSVSTAYLQISSLKADDTAVYFCARDITAVVPTGFDYWGQGSLVTVSS
VL: DIQLTQSPSSLSASVGDRVTITCRASENIYSNLAWYRQKPGKAPKLLVFAASNLADGVPSRFSGSGSGTDYTFTISSLQPEDIATYYCQHFWTTPWAFGGGTKLQIKR
As to B1, the frequency of CD3+ class II-DR+ cells, IMMU-114-treated MLR, representative result was 4%; the frequency of CD3+ class II-DR+ cells, IMMU-114-treated resting PBMCs, representative result stood at 0.5%; the frequency of CD11c+ class II-DR+ cells, IMMU-114-treated MLR, representative result is 2.3%; the frequency of CD11c+ class II-DR+ cells, IMMU-114-treated resting PBMCs, representative result is 0.4%. The molecule also came in with a frequency of CD14+ class II-DR+ cells, IMMU-114-treated MLR, representative result of 2.2%; a frequency of CD14+ class II-DR+ cells, IMMU-114-treated resting PBMCs, representative result of 0.5%; a reduction of live mDC1 in human PBMCs after 3 days with 5 µg/ml antibody (flow cytometry) of 59.2%; a reduction of live mDC2 in human PBMCs after 3 days with 5 µg/ml antibody (flow cytometry) of 85%. Moreover, the reduction of pDCs in human PBMCs (flow cytometry) is 50%.
